# Data as given in patent publication US20230118302 (published 2023).
# Positions count from the first letter of the chain named. Like-named read-outs stand apart in the source and are kept apart here.
# B1: v10014 (antibody, V domains shown)
# VH: EVQLVESGGGLVQPGGSLRLSCAASGFTFADYTMDWVRQAPGKGLEWVADVNPNSGGSIYNQRFKGRFTLSVDRSKNTLYLQMNSLRAEDTAVYYCARNLGPSFYFDYWGQGTLVTVSS
# VL: DIQMTQSPSSLSASVGDRVTITCKASQDVSIGVAWYQQKPGKAPKLLIYSASYRYTGVPSRFSGSGSGTDFTLTISSLQPEDFATYYCQQYYIYPATFGQGTKVEIK
# B2: v10000 (antibody)
# chain 1: EVQLVESGGGLVQPGGSLRLSCAASGFTFADYTMDWVRQAPGKGLEWVGDVNPNSGGSIYNQRFKGRFTFSVDRSKNTLYLQMNSLRAEDTAVYYCARNLGPSFYFDYWGQGTLVTVSSASTKGPSVFPLAPSSKSTSGGTAALGCLVKDYFPEPVTVSWNSGALTSGVHTFPAVLQSSGLYSLSSVVTVPSSSLGTQTYICNVNHKPSNTKVDKKVEPKSCDKTHTCPPCPAPELLGGPSVFLFPPKPKDTLMISRTPEVTCVVVDVSHEDPEVKFNWYVDGVEVHNAKTKPREEQYNSTYRVVSVLTVLHQDWLNGKEYKCKVSNKALPAPIEKTISKAKGQPREPQVYVYPPSRDELTKNQVSLTCLVKGFYPSDIAVEWESNGQPENNYKTTPPVLDSDGSFALVSKLTVDKSRWQQGNVFSCSVMHEALHNHYTQKSLSLSPG
# chain 2: not shown
# chain 3: not shown
# B3: v7148 (antibody)
# chain 1: B2 chain 1 with A30T, G49A, F70L
# chain 2: not shown
# chain 3: not shown
# modifications: v7091 conjugated to SMCC-DM1
# B4: v7091 (antibody)
# chain 1: B2 chain 1 with A30T, G49A, F70L
# chain 2: not shown
# chain 3: not shown
# Tests used:
# HER2 ECD [1] = target: T1, HER2 ECD (human, UniProt P04626); assay: SPR
# HER2 ECD [2] = target: T1, HER2 ECD; assay: SPR; remark: listed apart in the source
# HER2 on cells [3] = target: T2, HER2 on cells (human, UniProt P04626); assay: FACS, MCF7
# HER2 on cells [4] = target: T2, HER2 on cells; assay: FACS, MCF7; remark: listed apart in the source
# HER2 on cells [5] = target: T2, HER2 on cells; assay: FACS, WI-38
# CD16a V158 = CD16a V158 (human, UniProt P08637); assay: SPR
# Sequence of CD16a V158 (P08637 17-208 F176V): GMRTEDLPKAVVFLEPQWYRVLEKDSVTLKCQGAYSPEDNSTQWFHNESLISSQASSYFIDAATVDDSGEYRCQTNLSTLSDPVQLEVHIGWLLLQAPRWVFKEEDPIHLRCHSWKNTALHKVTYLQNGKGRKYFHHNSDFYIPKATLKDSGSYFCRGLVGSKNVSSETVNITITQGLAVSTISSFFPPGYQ
binder,measurement,setting,value
B1,Kd,HER2 ECD [1],2 nM
same,Kd,HER2 ECD [2],2.1 nM
B2,Kd,HER2 on cells [3],3.7 nM
same,Kd,HER2 on cells [4],6.8 nM
same,Kd,HER2 on cells [5],8.4 nM
B3,Kd,CD16a V158,120 nM
B4,Kd,CD16a V158,120 nM
